Laboratory results reported in PMC12222027, “In situ structure of a bacterial flagellar motor at subnanometre resolution reveals adaptations for increased torque” (Nature Microbiology, 2025).

B1: FliL (C. jejuni 81-176, endogenous) (natural protein)
chain: MDEELENEETKKKKGGSLVIIIVILLFVLLLSIMGVIAWLISSSSSDESEVKEAPKEEAKADKPKVSAPTQRGSDFANIGPMYPLDPFTLNLLSDSGSRYVKCTIELEQNSELLKPELDKKVPVIRDIIIRTLTAKTFEEVSTQKGKERLKDELVGKINEILTDGFIKNVYFTDFVVS
notes: FliL, flagellar protein forming an arc of four copies around the MotB linker in each asymmetric unit; source: endogenous, C. jejuni 81-176: ΔflhG ΔflaAB minicells imaged in situ; lysates of formaldehyde-crosslinked ΔpflA or ΔpflB cells carrying the PflA-FLAG or PflB-FLAG plasmid

Legend:
[1] = target: FlgP (basal disk protein, C. jejuni 81-176, in the motor in situ) (C. jejuni 81-176 (endogenous in minicells)); test: cryo-EM structure; in situ single-particle analysis of motors in C. jejuni ΔflhG ΔflaAB minicells; C17 focused refinement of the periplasmic scaffold and first basal disk ring (7.9 Å); AlphaFold2 models docked or flexibly fitted into the map
[2] = target: the molecule itself; test: as above

Molecule | stoichiometry N [1] | stoichiometry N [2]
FlgP (basal disk protein, C. jejuni 81-176, in the motor in situ) (natural protein) | 51 | –
B1 | – | 4
